Measured values published in patent publication US20250179161A1.

Molecular target: Amyloid Beta (Aβ) 1-42 (human)
Assay: cell-based or functional assay

Chain of Amyloid Beta (Aβ) 1-42 (human) (peptide, as listed by the source): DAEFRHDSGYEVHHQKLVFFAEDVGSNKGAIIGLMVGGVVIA

Avg. pg/mL Aβ1-42 left after ex vivo phagocytosis, APP/PS1 mouse brain sections with primary murine microglia, mean: 92600 pg/mL
Aβ1-42 (pg/ml) left after ex vivo phagocytosis, human AD brain sections with primary murine microglia: 185000 pg/mL
Mean (Aβ spots per neuron), isotype control at 1:50 mAb:Aβ42, soluble Aβ 1 µM, rat hippocampal neurons (Aβ spots per neuron): 58.7
Substance: human IgG isotype control antibody
